Test results from US20230374151A1 (GlaxoSmithKline, published 2023).

B1: humanised anti-TnMUC1 scFv L2-H1 (construct 6D14) (scFv)
scFv: DIVMTQSPDSLAVSLGERATINCKSSQSLLNSGDQKNYLTWYQQKPGQPPKLLIFWASTRESGVPDRFSGSGSGTDFTLTISSLQAEDVAVYYCQNDYSYPLTFGQGTKLEIKGGGGSGGGGSGGGGSGGGGSQVQLVQSGAEVKKPGSSVKVSCKASGYTFTDHAIHWVRQAPGQGLEWMGHFSPGNTDIKYNDKFKGRVTITADKSTSTAYMELSSLRSEDTAVYYCARSTFFFDYWGQGTTVTVSSAAAHHHHHH
B2: humanised anti-TnMUC1 scFv L0-H1 (construct 6D2) (scFv)
scFv: DIVMTQSPDSLAVSLGERATINCKSSQSLLNSGDQKNYLTWYQQKPGQPPKLLIYWASTRESGVPDRFSGSGSGTDFTLTISSLQAEDVAVYYCQNDYSYPLTFGQGTKLEIKGGGGSGGGGSGGGGSGGGGSQVQLVQSGAEVKKPGSSVKVSCKASGYTFTDHAIHWVRQAPGQGLEWMGHFSPGNTDIKYNDKFKGRVTITADKSTSTAYMELSSLRSEDTAVYYCARSTFFFDYWGQGTTVTVSSAAAHHHHHH
B3: humanised anti-TnMUC1 scFv L0-H2 (construct 6D3) (scFv)
scFv: DIVMTQSPDSLAVSLGERATINCKSSQSLLNSGDQKNYLTWYQQKPGQPPKLLIYWASTRESGVPDRFSGSGSGTDFTLTISSLQAEDVAVYYCQNDYSYPLTFGQGTKLEIKGGGGSGGGGSGGGGSGGGGSQVQLVQSGAEVKKPGSSVKVSCKASGYTFTDHAIHWVRQAPGQGLEWIGHFSPGNTDIKYNDKFKGRATLTVDRSTSTAYMELSSLRSEDTAVYYCARSTFFFDYWGQGTTVTVSSAAAHHHHHH
B4: humanised anti-TnMUC1 scFv L0-H4 (construct 6D5) (scFv)
scFv: DIVMTQSPDSLAVSLGERATINCKSSQSLLNSGDQKNYLTWYQQKPGQPPKLLIYWASTRESGVPDRFSGSGSGTDFTLTISSLQAEDVAVYYCQNDYSYPLTFGQGTKLEIKGGGGSGGGGSGGGGSGGGGSQVQLVQSGAEVKKPGSSVKVSCKASGYTFTDHAIHWVRQAPGQGLEWMGHFSPGNTDIKYNDKFKGRVTITADKSTSTAYMELSSLRSEDTAVYFCARSTFFFDYWGQGTTVTVSSAAAHHHHHH
B5: humanised anti-TnMUC1 scFv L1-H1 (construct 6D8) (scFv)
scFv: ELVMTQSPDSLAVSLGERATINCKSSQSLLNSGDQKNYLTWYQQKPGQPPKLLIYWASTRESGVPDRFSGSGSGTDFTLTISSLQAEDVAVYYCQNDYSYPLTFGQGTKLEIKGGGGSGGGGSGGGGSGGGGSQVQLVQSGAEVKKPGSSVKVSCKASGYTFTDHAIHWVRQAPGQGLEWMGHFSPGNTDIKYNDKFKGRVTITADKSTSTAYMELSSLRSEDTAVYYCARSTFFFDYWGQGTTVTVSSAAAHHHHHH
B6: humanised anti-TnMUC1 scFv L1-H2 (construct 6D9) (scFv)
scFv: ELVMTQSPDSLAVSLGERATINCKSSQSLLNSGDQKNYLTWYQQKPGQPPKLLIYWASTRESGVPDRFSGSGSGTDFTLTISSLQAEDVAVYYCQNDYSYPLTFGQGTKLEIKGGGGSGGGGSGGGGSGGGGSQVQLVQSGAEVKKPGSSVKVSCKASGYTFTDHAIHWVRQAPGQGLEWIGHFSPGNTDIKYNDKFKGRATLTVDRSTSTAYMELSSLRSEDTAVYYCARSTFFFDYWGQGTTVTVSSAAAHHHHHH
B7: humanised anti-TnMUC1 scFv L2-H2 (construct 6D15) (scFv)
scFv: DIVMTQSPDSLAVSLGERATINCKSSQSLLNSGDQKNYLTWYQQKPGQPPKLLIFWASTRESGVPDRFSGSGSGTDFTLTISSLQAEDVAVYYCQNDYSYPLTFGQGTKLEIKGGGGSGGGGSGGGGSGGGGSQVQLVQSGAEVKKPGSSVKVSCKASGYTFTDHAIHWVRQAPGQGLEWIGHFSPGNTDIKYNDKFKGRATLTVDRSTSTAYMELSSLRSEDTAVYYCARSTFFFDYWGQGTTVTVSSAAAHHHHHH
B8: humanised anti-TnMUC1 scFv L2-H4 (construct 6D17) (scFv)
scFv: DIVMTQSPDSLAVSLGERATINCKSSQSLLNSGDQKNYLTWYQQKPGQPPKLLIFWASTRESGVPDRFSGSGSGTDFTLTISSLQAEDVAVYYCQNDYSYPLTFGQGTKLEIKGGGGSGGGGSGGGGSGGGGSQVQLVQSGAEVKKPGSSVKVSCKASGYTFTDHAIHWVRQAPGQGLEWMGHFSPGNTDIKYNDKFKGRVTITADKSTSTAYMELSSLRSEDTAVYFCARSTFFFDYWGQGTTVTVSSAAAHHHHHH
B9: humanised anti-TnMUC1 scFv L3-H1 (construct 6D20) (scFv)
scFv: ELVMTQSPDSLAVSLGERATINCKSSQSLLNSGDQKNYLTWYQQKPGQPPKLLIFWASTRESGVPDRFSGSGSGTDFTLTISSLQAEDVAVYYCQNDYSYPLTFGQGTKLEIKGGGGSGGGGSGGGGSGGGGSQVQLVQSGAEVKKPGSSVKVSCKASGYTFTDHAIHWVRQAPGQGLEWMGHFSPGNTDIKYNDKFKGRVTITADKSTSTAYMELSSLRSEDTAVYYCARSTFFFDYWGQGTTVTVSSAAAHHHHHH
B10: humanised anti-TnMUC1 scFv L3-H2 (construct 6D21) (scFv)
scFv: ELVMTQSPDSLAVSLGERATINCKSSQSLLNSGDQKNYLTWYQQKPGQPPKLLIFWASTRESGVPDRFSGSGSGTDFTLTISSLQAEDVAVYYCQNDYSYPLTFGQGTKLEIKGGGGSGGGGSGGGGSGGGGSQVQLVQSGAEVKKPGSSVKVSCKASGYTFTDHAIHWVRQAPGQGLEWIGHFSPGNTDIKYNDKFKGRATLTVDRSTSTAYMELSSLRSEDTAVYYCARSTFFFDYWGQGTTVTVSSAAAHHHHHH
B11: humanised anti-TnMUC1 scFv L3-H3 (construct 6D22) (scFv)
scFv: ELVMTQSPDSLAVSLGERATINCKSSQSLLNSGDQKNYLTWYQQKPGQPPKLLIFWASTRESGVPDRFSGSGSGTDFTLTISSLQAEDVAVYYCQNDYSYPLTFGQGTKLEIKGGGGSGGGGSGGGGSGGGGSQVQLVQSGAEVKKPGSSVKVSCKASGYTFTDHAIHWVRQAPGQGLEWMGHFSPGNTDIKYNDKFKGRVTITADKSTSTAYMELSSLRSEDTAVYYCKTSTFFFDYWGQGTTVTVSSAAAHHHHHH
B12: humanised anti-TnMUC1 scFv L3-H4 (construct 6D23) (scFv)
scFv: ELVMTQSPDSLAVSLGERATINCKSSQSLLNSGDQKNYLTWYQQKPGQPPKLLIFWASTRESGVPDRFSGSGSGTDFTLTISSLQAEDVAVYYCQNDYSYPLTFGQGTKLEIKGGGGSGGGGSGGGGSGGGGSQVQLVQSGAEVKKPGSSVKVSCKASGYTFTDHAIHWVRQAPGQGLEWMGHFSPGNTDIKYNDKFKGRVTITADKSTSTAYMELSSLRSEDTAVYFCARSTFFFDYWGQGTTVTVSSAAAHHHHHH
B13: humanised anti-TnMUC1 scFv H3-L3, VH-VL orientation (construct 6D25) (scFv)
scFv: QVQLVQSGAEVKKPGSSVKVSCKASGYTFTDHAIHWVRQAPGQGLEWMGHFSPGNTDIKYNDKFKGRVTITADKSTSTAYMELSSLRSEDTAVYYCKTSTFFFDYWGQGTTVTVSSGGGGSGGGGSGGGGSGGGGSELVMTQSPDSLAVSLGERATINCKSSQSLLNSGDQKNYLTWYQQKPGQPPKLLIFWASTRESGVPDRFSGSGSGTDFTLTISSLQAEDVAVYYCQNDYSYPLTFGQGTKLEIKAAAHHHHHHH

Biological target: T1, MUC1 peptide (non-glycosylated), biotinylated (N-terminal Biotin-PEG2; C-terminal amide)
T1 construct: also called 36-4; 7-36-4
T1 peptide: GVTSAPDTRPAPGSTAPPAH
Assay: Octet BLI, biotinylated peptide on streptavidin sensors
Procedure: Biotinylated MUC1 peptide (7-36-4) and TnMUC1 peptide (7-36-2) were diluted to 10 μg/ml in Octet Running Buffer (1×PBSF) and loaded onto Octet SA (streptavidin) sensors. The positive control proteins were tested in the Octet assay at a single concentration of 500 nM. All humanised anti-Tn MUC1 scFv expression supernatants were assayed neat.
Data was analysed using the data acquisition software fortéBIO version 8.0.2.5 and the data analysis software fortéBIO version 8.0.2.3.

Binding result, no binding (tested: neat supernatant):
B1, B2, B3, B4, B5, B6, B7, B8, B9, B10, B11, B12, B13
